Test results reported in FireProtDB (doi:10.1074/jbc.274.53.37533).

Details: Pseudomonas aeruginosa (strain ATCC 15692 / DSM 22644 / CIP 104116 / JCM 14847 / LMG 12228 / 1C / PRS 101 / PAO1), CD, HCl, whole UniProt chain shown

B1: Cytochrome c-551 wild type, P00099 (protein)
chain: MKPYALLSLLATGTLLAQGAWAEDPEVLFKNKGCVACHAIDTKMVGPAYKDVAAKFAGQAGAEAELAQRIKNGSQGVWGPIPMPPNAVSDDEAQTLAKWVLSQK
For B1, the denaturant m value (pH 5, 25 °C, GdnHCl) was 2.17 kcal/mol/M, the “denaturant midpoint (higher = more stable)” value (pH 5, 25 °C, GdnHCl) was 2.25 M and the Tm (pH 5, Thermal) was 50.4 °C. The “unfolding enthalpy (van 't Hoff)” value (pH 5, Thermal) was 37.6 kcal/mol.
